Laboratory results published in US20220119448A1 (ZHEJIANG DOER BIOLOGICS, published 2022).

Assays:
VEGF [1] = molecular target: T1, VEGF (UniProt P15692-4 27-191, limits assumed, biotin-labelled (Sulfo-NHS biotin, molar ratio 2:1) in the BLI assay; unlabelled in the competition ELISA); assay: BLI (Octet-QK), biotin-VEGF on SA probe; repeat 3
T1 construct: also called biotin-labeled VEGF
Excerpt: (§1) The binding affinities of the fusion proteins were detected using BLI (Bio-layer inteferometry, ForteBio). […] Excess biotin not involved in labeling was removed by dialysis. […] The buffer used in the experiment was PBS (containing 0.1% Tween-20). […] Based on the program settings, the fusion proteins were bound, and then dissociated in PBST solution, to obtain the experimental curves. According to the result analysis software of Octet-QK, local full was used to fit the curves of the experimental results, then kon, kdis and Kd were determined.

VEGF [2] = molecular target: T1, VEGF; assay: BLI (Octet-QK), biotin-VEGF on SA probe; repeat 1
Excerpt: as §1

VEGF [3] = molecular target: T1, VEGF; assay: competition ELISA: inhibition of VEGF binding to plate-coated VEGF Receptor 2 (KDR)
Experimental: (§2) The plate was then blocked with 1% BSA/TBS and placed at 37° C. for 1 h; 1% BSA/TBS was added to the plate, 200 μL per well, and placed at 37° C. for 2 h.
(§3) Then, the stock solutions were diluted by 3 times to a total of 11 concentrations. […] The KDR-coated ELISA plate was washed twice and pat-dried. The mixture was successively transferred to the ELISA plate and placed at 37° C. for 1 h, then the plate was washed for 6 times. […] The plate was placed at 37° C. for 1 h and washed for 6 times. Then, goat anti-rat secondary antibody (Pierce, 31432, QA1969921) diluted at 1:1000 was added, 50 μL per well. The plate was placed at 37° C. for 1 h and washed for 6 times. Color developing solution was added after reaction, and the plated was incubated at 37° C. for 15 min. Stop buffer was added to terminate the color reaction. OD450 values were read on a microplate reader.

VEGF [4] = molecular target: T1, VEGF; assay: competition ELISA: sample pre-mixed with VEGF, mixture put on a plate coated with VEGF Receptor 2 (KDR), bound VEGF detected with mouse anti-human VEGF antibody, OD450; blocked ligand-receptor pair VEGF/KDR
Experimental: as §2, §3

VEGF [5] = molecular target: T1, VEGF; assay: BLI (Octet-QK), biotin-VEGF on SA probe; average of 3 repeats (STD 0.11)
Excerpt: as §1

VEGF [6] = molecular target: T1, VEGF; assay: BLI (Octet-QK), biotin-VEGF on SA probe; repeat 2
Excerpt: as §1

T1 sequence (P15692 other isoform, or with tags, fused parts or gaps limits assumed): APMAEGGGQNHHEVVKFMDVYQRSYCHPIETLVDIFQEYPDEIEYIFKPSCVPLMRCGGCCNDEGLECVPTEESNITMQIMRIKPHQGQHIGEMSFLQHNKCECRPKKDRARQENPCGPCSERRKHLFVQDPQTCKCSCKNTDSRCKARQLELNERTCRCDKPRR

B1: PU98x43-ARVEGF (designed binder)
chain: AEPAAPAPAEPAAPAPEAPAAEPAAPAPAEPAAPAPEAPAAEPAAPAPAEPAAPAPEAPAAEPAAPAPAEPAAPAPEAPAAEPAAPAPAEPAAPAPEAPAAEPAAPAPAEPAAPAPEAPAAEPAAPAPAEPAAPAPEAPAAEPAAPAPAEPAAPAPEAPAAEPAAPAPAEPAAPAPEAPAAEPAAPAPAEPAAPAPEAPAAEPAAPAPAEPAAPAPEAPAAEPAAPAPAEPAAPAPEAPAAEPAAPAPAEPAAPAPEAPAAEPAAPAPAEPAAPAPEAPAAEPAAPAPAEPAAPAPEAPAAEPAAPAPAEPAAPAPEAPAAEPAAPAPAEPAAPAPEAPAAEPAAPAPAEPAAPAPEAPAAEPAAPAPAEPAAPAPEAPAAEPAAPAPAEPAAPAPEAPAAEPAAPAPAEPAAPAPEAPAAEPAAPAPAEPAAPAPEAPAAEPAAPAPAEPAAPAPEAPAAEPAAPAPAEPAAPAPEAPAAEPAAPAPAEPAAPAPEAPAAEPAAPAPAEPAAPAPEAPAAEPAAPAPAEPAAPAPEAPAAEPAAPAPAEPAAPAPEAPAAEPAAPAPAEPAAPAPEAPAAEPAAPAPAEPAAPAPEAPAAEPAAPAPAEPAAPAPEAPAAEPAAPAPAEPAAPAPEAPAAEPAAPAPAEPAAPAPEAPAAEPAAPAPAEPAAPAPEAPAAEPAAPAPAEPAAPAPEAPAAEPAAPAPAEPAAPAPEAPAAEPAAPAPAEPAAPAPEAPAAEPAAPAPAEPAAPAPEAPAAEPAAPAPAEPAAPAPEAPAAEPAAPAPAEPAAPAPEAPAAEPAAPAPAEPAAPAPEAPAAEPAAPAPAEPAAPAPEAPAAEPAAPAPAEPAAPAPEAPAGSDLDKKLLEAARAGQDDEVRILMANGADVNARDSTGWTPLHLAAPWGHPEIVEVLLKNGADVNAADFQGWTPLHLAAAVGHLEIVEVLLKYGADVNAQDKFGKTAFDISIDNGNEDLAEILQKAA
notes: also called PU-ARVEGF fusion protein
With B1 the Kd (VEGF [1]) was 0.42 nM, the Kd (VEGF [2]) was 0.63 nM and the IC50 (VEGF [3]) was 0.51 nM. The “IC50 (read off the curve)” value (VEGF [4]) was ~0.3 nM, the Kd (VEGF [5]) was 0.51 nM and the Kd (VEGF [6]) was 0.49 nM.
